# Experimental data taken from the domain aggregation screens of Martell et al. (2025).
# Assay: soluble fraction after stress (log2 fold change); higher = more stays soluble; pooled small domains, quantitative proteomics
# Settings: stress: 75 degC
# 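Also: 20 min heating vs room temperature control held 20 min.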
sequence,measurement,value
HMYYSERILTILEERGISPYRVSKETGISQSVFSNWKRKPTSRITAANLERLADYLGLPVEVLTG,soluble fraction (log2),-3.48
